The target of this assay is T1, Wild type SubB (subtilase cytotoxin B subunit) (Escherichia coli, UniProt Q6EZC3 24-141).
T1 construct: also called SubB WT
As to the kind of experiment: SPR (Biacore […]), […], single cycle kinetics. For orientation: In SPR one partner is held on a chip, and binding of the other changes the refractive index at the surface.

Among the data in patent US20260139240A1 (GRIFFITH UNIVERSITY, published 2026) are Kd values, retold here.

One may read the Kd as the concentration at which binding is half-saturated.

B1: Bovine α1-acid glycoprotein (AGP) (other)
chain: QSPECANLMTVAPITNATMDLLSGKWFYIGSAFRNPEYNKSARAIQAAFFYLEPRHAEDKLITREYQTIEDKCVYNCSFIKIYRQNGTLSKVESDREHFVDLLLSKHFRTFMLAASWNGTKNVGVSFYADKPEVTQEQKKEFLDVIKCIGIQESEIIYTDEKKDACGPLEKQHEEERKKETEAS
notes: mature; also called Bovine α1-AGP; bovine AGP
With B1, the Kd was 156 nM.
